Four molecules from patent US20160115235A1 (ARES TRADING S A, published 2016) can be followed below.

The target of assay [1] is T1, human CXCR2 (human, UniProt P25025 1-360).
T1 construct: whole, on cells; Native on the granulocyte population of human whole blood
T1 sequence (looked up): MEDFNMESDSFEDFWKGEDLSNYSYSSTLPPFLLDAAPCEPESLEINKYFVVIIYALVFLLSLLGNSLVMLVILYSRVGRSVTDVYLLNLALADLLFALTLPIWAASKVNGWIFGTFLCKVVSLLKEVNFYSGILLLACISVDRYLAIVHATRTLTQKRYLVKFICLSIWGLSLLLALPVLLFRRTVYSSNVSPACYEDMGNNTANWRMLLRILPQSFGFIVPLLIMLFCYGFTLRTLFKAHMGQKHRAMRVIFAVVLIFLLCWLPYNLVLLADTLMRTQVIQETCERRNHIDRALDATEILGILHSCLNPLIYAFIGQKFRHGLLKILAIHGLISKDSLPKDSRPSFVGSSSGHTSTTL
Briefly: flow cytometry, Alexa-Fluor 647 labelled mAb in human whole blood. As for the experimental part: (§1) 40C01-VH1-Vk3 and VH2-Vk3 variants were labelled with Alexa Fluor 647 dye using monoclonal antibody labelling kit from Invitrogen (Cat #A20186). Blood was collected in sodium-heparinised tubes and rested for 2 h at RT. Sodium azide (NaN₃) was then added to whole blood to a final concentration of 0.01%. Serial 1 in 3 dilutions of Alexa-Fluor 647 labelled-mAbs ranging from 60 μg/ml to 3 ng/ml were added to blood samples and incubated for 30 min at RT. Phycoerythrin (PE) labelled anti-CD19 (BD Pharmingen, cat#555413) and anti-human CXCR2 (R&D Systems, cat #FAB331P) mAbs and their respective isotype controls were used for gating B cells and monitoring CXCR2 expression on granulocytes, respectively. Labelled red blood cells were then lysed using the human erythrocyte lysing kit from R&D Systems (Cat # WL1000) and the blood cells resuspended in FACS buffer (PBS-1% BSA, 0.1% NaN₃) and analysed by flow cytometry on FACS Calibur 3 (BD Biosciences). The EC₅₀ and ECB, values were calculated by plotting the FL4 fluorescence (emission of Alexa Fluor 647 dye) as a function of the antibody concentration. […] No binding of the two 40C01 variants was detected on the granulocyte population which expresses CXCR2 (neutrophils).
(In flow cytometry, cells or beads pass a laser one at a time.)

The target in assay [2] is T2, human CXCR5 (human, UniProt P32302 1-372).
T2 construct: Full length, on stably transfected cells (HEK-293, L1.2, R1610 and others), made with or without a C-terminal tag, or native on primary human B cells; also called hCXCR5; BLR-1
T2 sequence: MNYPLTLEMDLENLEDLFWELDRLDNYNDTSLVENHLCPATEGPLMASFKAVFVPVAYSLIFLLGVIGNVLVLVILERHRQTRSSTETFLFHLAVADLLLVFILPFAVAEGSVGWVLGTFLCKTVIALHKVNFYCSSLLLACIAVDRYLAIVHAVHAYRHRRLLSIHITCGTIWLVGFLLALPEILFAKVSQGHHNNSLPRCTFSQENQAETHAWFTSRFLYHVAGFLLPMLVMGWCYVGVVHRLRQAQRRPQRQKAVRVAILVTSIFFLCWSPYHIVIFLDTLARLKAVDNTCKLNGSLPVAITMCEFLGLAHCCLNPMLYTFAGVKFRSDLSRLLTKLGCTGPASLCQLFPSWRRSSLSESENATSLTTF
In words: flow cytometry, Alexa Fluor 647 labelled mAb on CD19-gated human B cells in whole blood. As for the experimental part: as §1

Assay [3] concerns the target T2, human CXCR5. Briefly: flow cytometry, Alexa Fluor 647 labelled mAb on HEK-293 cells stably transfected with human CXCR5; 40C01-VH1-Vk3, Alexa Fluor 647 labelled, HEK-293 cells with human CXCR5. How it is done: Anti-CXCR5 40C01-VH1-Vk3 and VH2-Vk3 variants were labelled with Alexa Fluor 647 dye using monoclonal antibody labelling kit from Invitrogen (Cat #A20186). Binding of labelled mAbs to HEK-293 cells stably transfected with human CXCR5 was examined by a direct immunofluorescence assay. A total of 1×10⁵ stable HEK-293 cells over-expressing human CXCR5 were incubated with 1 in 3 serially diluted Alexa Fluor 647 mAbs ranging from 60 μg/ml to 0.33 ng/ml in FACS buffer (PBS containing 1% BSA and 0.1% NaN₃) for 1 h on ice. Cells were washed twice with FACS buffer and analyzed on FACSCalbur flow cytometer (BD Biosciences).

The target of assay [4] is T2, human CXCR5. Briefly: cell-based or functional assay.
Assay [5] addresses T3, cynomolgus monkey (Macaca fascicularis) CXCR5 (cynomolgus monkey (Macaca fascicularis), UniProt P32302 1-372 (human entry)).
T3 chain: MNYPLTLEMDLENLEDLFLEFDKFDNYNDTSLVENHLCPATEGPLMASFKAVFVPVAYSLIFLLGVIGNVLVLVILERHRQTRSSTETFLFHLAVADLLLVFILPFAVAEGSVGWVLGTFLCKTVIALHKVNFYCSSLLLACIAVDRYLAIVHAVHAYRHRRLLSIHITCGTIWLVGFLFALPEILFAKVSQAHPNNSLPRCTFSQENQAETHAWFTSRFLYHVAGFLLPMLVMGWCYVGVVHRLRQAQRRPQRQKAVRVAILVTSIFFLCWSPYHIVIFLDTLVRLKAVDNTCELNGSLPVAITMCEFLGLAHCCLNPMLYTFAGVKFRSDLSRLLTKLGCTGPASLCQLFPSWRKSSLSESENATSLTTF
In words: cell-based or functional assay.

In assay [6] the target is T2, human CXCR5. Briefly: cell-based or functional assay. The source holds these as a separate data set.
For assay [7], the target named is T2, human CXCR5. Briefly: cell-based or functional assay. This is another data set of the same source.
Assay [8] has as its target T3, cynomolgus monkey (Macaca fascicularis) …. Briefly: cell-based or functional assay.
Assay [9] has the same target. In words: cell-based or functional assay.
Assay [10] addresses T2, human CXCR5. Briefly: KinExA, IgG2 mAb equilibrated with HEK-293 cells expressing human CXCR5, n-curve analysis. How it is done: Kinetic Exclusion Assay (KinExA) was used to determine the concentration of the free antibody that remains in solution after equilibrium has been established between the fully human IgG2 (subtype HC2h, as described in WO2009010290) anti-CXCR5 40C01 antibody variants and human CXCR5 expressed on the cell surface of stably transfected HEK-293 cells, from which the equilibrium dissociation constant (Kd) was determined. This method provides a true measure of the affinity/avidity of the antibody to integral membrane proteins like GPCRs.
HEK-293 cells, stably expressing human CXCR5, an integral membrane protein with 7 trans membrane domains, were harvested using Accutase cell detachment solution, resuspended at 2×10⁶ cells/ml and serially diluted 1 in 2 in 15 falcon tubes using KinExA buffer (PBS containing 1 mg/ml BSA and 0.02% NaN₃). An appropriate constant concentration of purified mAb was made in KinExA buffer and an equal volume of the mAb was mixed with the serially diluted cells. […] The cells were then centrifuged and the free mAb present in the supernatant was measured by KinExA using PMMA beads (Sapidyne Instruments, cat#440198) coated with goat anti-human IgG (H+L) (Jackson ImmunoResearch, cat#109-005-003) and DyLight 649-conjugated anti-human secondary antibody (Jackson ImmunoResearch, Goat anti-human Fc, cat#109-495-098) used at 1 μg/ml in KinExA buffer. […]
A general note: Kinetic exclusion samples the free partner from a solution-phase mixture.

B1: anti-CXCR5 40C01-VH1-Vk3 variant (isotype not stated in the example) (antibody, V domains shown)
VH: EVQLLESGGGLVQPGGSLRLSCAASGFTFSRYVMVWVRQAPGKGLEWVSGISPSGGVTRYAASVKGRFTISRDNSKNTLYLQMNSLRAEDTAVYYCARIRKEMTTISYFFDYWGQGTLVTVSS
VL: DIQMTQSPSSLSASVGDRVTITCRASQGVDAYVAWYQQKPGKVPKLLIYSTSTLASGVPSRFSGSGSGTDFTLTISSLQPEDVATYYCQSHNAAVVTFGQGTRLEIK
notes: also called Alexa-Fluor 647 labelled 40C01-VH1-Vk3
As for B1, the binding result in assay [1] was “no binding (tested: 60 µg/ml to 3 ng/ml tested)”. Also, the EC50 in [2] stood at 1.92 nM; in assay [3], 2.26 nM.

B2: anti-CXCR5 40C01-VH2-Vk3 as IgG1 (antibody)
VH: EVQLLESGGGLVQPGGSLRLSCAASGFTFSRSVMVWVRQAPGKGLEWVSGISPSGGVTRYAASVKGRFTISRDNSKNTLYLQMNSLRAEDTAVYYCARIRKEKTTISYFFDYWGQGTLVTVSS
light: DIQMTQSPSSLSASVGDRVTITCRASQGVDAYVAWYQQKPGKVPKLLIYSTSTLASGVPSRFSGSGSGTDFTLTISSLQPEDVATYYCQSHNAAVVTFGQGTRLEIKRTVAAPSVFIFPPSDEQLKSGTASVVCLLNNFYPREAKVQWKVDNALQSGNSQESVTEQDSKDSTYSLSSTLTLSKADYEKHKVYACEVTHQGLSSPVTKSFNRGEC
For B2, in [4], the “IC50, inhibition of CXCL13-induced L1.2-CXCR5 chemotaxis” value was 0.098 nM. Further, the “IC50, inhibition of CXCL13-induced L1.2-CXCR5 chemotaxis” value in assay [5] was determined as 0.17 nM. The “IC50, inhibition of ERK phosphorylation in whole blood (B cells, CXCL13-stimulated)” value (from here on “IC50, inhibition of ERK phosphorylation”) in assay [6] amounted to 0.45 nM. Besides, in assay [7], the “IC50, inhibition of human CXCR5-L1.2 cell chemotaxis” value amounted to 0.05 nM; the “efficacy of inhibition of CXCL13-stimulated L1.2-CXCR5 chemotaxis” value stood at 100%; the “mean IC50, inhibition of CXCL13-stimulated chemotaxis of primary human B cells in human serum” value turned out to be 0.34 nM. Also, the “efficacy of inhibition of CXCL13-stimulated L1.2-CXCR5 chemotaxis” value in assay [8] is 100%.

B3: anti-CXCR5 40C01-VH1-Vk3-IgG2_DI-NQ-HC2h (antibody)
heavy: EVQLLESGGGLVQPGGSLRLSCAASGFTFSRYVMVWVRQAPGKGLEWVSGISPSGGVTRYAASVKGRFTISRDNSKNTLYLQMNSLRAEDTAVYYCARIRKEMTTISYFFDYWGQGTLVTVSSASTKGPSVFPLAPCSRSTSESTAALGCLVKDYFPEPVTVSWNSGALTSGVHTFPAVLQSSGLYSLSSVVTVPSSNFGTQTYTCNVDHKPSNTKVDKTVEPKSSDKTHTCPPCPAPPVAGPSVFLFPPKPKDTLMISRTPEVTCVVVDVSHEDPEVQFNWYVDGVEVHNAKTKPREEQAQSTFRVVSVLTVVHQDWLNGKEYKCKVSNKGLPAPIEKTISKTKGQPREPQVYTLPPSREEMTKNQVSLTCLVKGFYPSDIAVEWESNGQPENNYKTTPPMLDSDGSFFLYSKLTVDKSRWQQGNVFSCSVMHEALHNHYTQKSLSLSPG
light: DIQMTQSPSSLSASVGDRVTITCRASQGVDAYVAWYQQKPGKVPKLLIYSTSTLASGVPSRFSGSGSGTDFTLTISSLQPEDVATYYCQSHNAAVVTFGQGTRLEIKRTVAAPSVFIFPPSDEQLKSGTASVVCLLNNFYPREAKVQWKVDNALQSGNSQESVTEQDSKDSTYSLSSTLTLSKADYEKHKVYACEVTHQGLSSPVTKSFNRGEC
notes: Whole antibody, modified human IgG2 (subtype HC2h, WO2009010290), kappa light chain; also called 40C01-VH1-Vk3 as IgG2; VH1-Vk3 (isotype 2)
Regarding B3, in assay [4], the “IC50, inhibition of CXCL13-induced L1.2-CXCR5 chemotaxis” value came out at 1.15 nM. Also, the “IC50, inhibition of ERK phosphorylation” value in [6] came out at 0.736 nM; in [9] it was 0.195 nM. In assay [10], this molecule yielded an equilibrium dissociation constant (Kd) of 0.0154 nM. Besides, the “efficacy of inhibition of CXCL13-stimulated L1.2-CXCR5 chemotaxis” value in [7] turned out to be 100%.

B4: anti-CXCR5 40C01-VH2-Vk3 as IgG2 (antibody)
heavy: EVQLLESGGGLVQPGGSLRLSCAASGFTFSRSVMVWVRQAPGKGLEWVSGISPSGGVTRYAASVKGRFTISRDNSKNTLYLQMNSLRAEDTAVYYCARIRKEKTTISYFFDYWGQGTLVTVSSASTKGPSVFPLAPCSRSTSESTAALGCLVKDYFPEPVTVSWNSGALTSGVHTFPAVLQSSGLYSLSSVVTVPSSNFGTQTYTCNVDHKPSNTKVDKTVEPKSSDKTHTCPPCPAPPVAGPSVFLFPPKPKDTLMISRTPEVTCVVVDVSHEDPEVQFNWYVDGVEVHNAKTKPREEQAQSTFRVVSVLTVVHQDWLNGKEYKCKVSNKGLPAPIEKTISKTKGQPREPQVYTLPPSREEMTKNQVSLTCLVKGFYPSDIAVEWESNGQPENNYKTTPPMLDSDGSFFLYSKLTVDKSRWQQGNVFSCSVMHEALHNHYTQKSLSLSPG
light: DIQMTQSPSSLSASVGDRVTITCRASQGVDAYVAWYQQKPGKVPKLLIYSTSTLASGVPSRFSGSGSGTDFTLTISSLQPEDVATYYCQSHNAAVVTFGQGTRLEIKRTVAAPSVFIFPPSDEQLKSGTASVVCLLNNFYPREAKVQWKVDNALQSGNSQESVTEQDSKDSTYSLSSTLTLSKADYEKHKVYACEVTHQGLSSPVTKSFNRGEC
notes: also called VH2-Vk3 (isotype 2)
On to B4, for which the “IC50, inhibition of CXCL13-induced L1.2-CXCR5 chemotaxis” value in assay [4] is 0.108 nM. Also, the “IC50, inhibition of ERK phosphorylation” value in [6] was 0.88 nM; in assay [9] it was 1.57 nM. In assay [10], this molecule showed a Kd of 0.047 nM. For the same molecule, the “efficacy of inhibition of CXCL13-stimulated L1.2-CXCR5 chemotaxis” value in [7] was found to be 100%.

As usually defined, the EC50 is the midpoint of the concentration-response curve. A word on the Kd: it is the free concentration of one partner at which half of the binding sites on the other are occupied at equilibrium, for simple one-to-one binding.
